Data reported in patent US20140087995A1 (published 2014).
Blank lines part the entries; values can stand above or below the binder they belong to. Numbered stars: 1 amine (or outer) side, 2 acyl side, 3 side chain; on linkers, the order of the positions; unused ones are H or OH. Bridge positions count the residues as written; N and C are the ends. Side chains are listed from the residue outwards. Ends that are not written are not given here. * marks the point of attachment. C20 diacid = O=C(O)CCCCCCCCCCCCCCCCCCC(=O)*; γGlu = O=C(O)[C@H](CCC(=O)[*:2])N[*:1]; AEEA = NCCOCCOCC(=O)O

Target: T1, human amylin 3(a) receptor (human calcitonin receptor co-expressed with RAMP-3) (human, UniProt P30988 25-474; O60896 24-148, limits assumed)
T1 sequence (looked up) 1: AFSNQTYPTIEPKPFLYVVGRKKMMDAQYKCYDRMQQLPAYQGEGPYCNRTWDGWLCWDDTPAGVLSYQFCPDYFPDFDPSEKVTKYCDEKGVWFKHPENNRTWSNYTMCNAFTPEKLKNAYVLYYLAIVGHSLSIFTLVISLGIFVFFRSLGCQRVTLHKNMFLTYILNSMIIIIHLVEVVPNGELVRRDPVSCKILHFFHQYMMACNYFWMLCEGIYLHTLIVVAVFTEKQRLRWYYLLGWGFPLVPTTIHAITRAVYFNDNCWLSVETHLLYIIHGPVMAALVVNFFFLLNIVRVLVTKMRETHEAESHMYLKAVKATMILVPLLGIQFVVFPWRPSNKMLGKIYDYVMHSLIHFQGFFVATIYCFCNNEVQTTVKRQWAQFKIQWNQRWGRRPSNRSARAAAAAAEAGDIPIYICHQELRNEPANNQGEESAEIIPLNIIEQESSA
T1 sequence (looked up) 2: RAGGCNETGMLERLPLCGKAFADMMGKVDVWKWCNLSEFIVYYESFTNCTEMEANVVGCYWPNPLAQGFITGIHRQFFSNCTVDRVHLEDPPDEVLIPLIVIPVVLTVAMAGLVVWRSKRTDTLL
Test: cell-based or functional assay

Ratio hCT/hAmylin funct. (hCTR EC50 over hAmylin-R EC50): 24
hAmylin-R funct. EC50 (pM): 198 pM
B1: N^ε-[(4S)-4-carboxy-4-(19-carboxynonadecanoylamino)butanoyl]Lys[Arg1,Arg17,Pro21,Pro27,His35]-h-amylin (peptide)
peptide: K([γGlu-C20 diacid])RCNTATCATQRLANFLRHSSPNFGAIPSSTNVGSHTY-NH2
modifications: disulfide 3-8; N-terminus assumed
SMILES: CC[C@H](C)[C@H](NC(=O)[C@H](C)NC(=O)CNC(=O)[C@H](Cc1ccccc1)NC(=O)[C@H](CC(N)=O)NC(=O)[C@@H]1CCCN1C(=O)[C@H](CO)NC(=O)[C@H](CO)NC(=O)[C@H](Cc1c[nH]cn1)NC(=O)[C@H](CCCNC(=N)N)NC(=O)[C@H](CC(C)C)NC(=O)[C@H](Cc1ccccc1)NC(=O)[C@H](CC(N)=O)NC(=O)[C@H](C)NC(=O)[C@H](CC(C)C)NC(=O)[C@H](CCCNC(=N)N)NC(=O)[C@H](CCC(N)=O)NC(=O)[C@@H](NC(=O)[C@H](C)NC(=O)[C@@H]1CSSC[C@H](NC(=O)[C@H](CCCNC(=N)N)NC(=O)[C@@H](N)CCCCNC(=O)CC[C@H](NC(=O)CCCCCCCCCCCCCCCCCCC(=O)O)C(=O)O)C(=O)N[C@@H](CC(N)=O)C(=O)N[C@@H]([C@@H](C)O)C(=O)N[C@@H](C)C(=O)N[C@@H]([C@@H](C)O)C(=O)N1)[C@@H](C)O)C(=O)N1CCC[C@H]1C(=O)N[C@@H](CO)C(=O)N[C@@H](CO)C(=O)N[C@H](C(=O)N[C@@H](CC(N)=O)C(=O)N[C@H](C(=O)NCC(=O)N[C@@H](CO)C(=O)N[C@@H](Cc1c[nH]cn1)C(=O)N[C@H](C(=O)N[C@@H](Cc1ccc(O)cc1)C(N)=O)[C@@H](C)O)C(C)C)[C@@H](C)O
notes: 38 residues; also called compound 44

Ratio hCT/hAmylin funct. (hCTR EC50 over hAmylin-R EC50): 17
hAmylin-R funct. EC50 (pM): 594 pM
B2: N^ε-[2-[2-[2-[[(4S)-4-carboxy-4-(19-carboxynonadecanoylamino)butanoyl]amino]ethoxy]ethoxy]acetyl]Lys[Arg1,Arg17,Pro21,Pro27,His35]-h-amylin (peptide)
peptide: K([AEEA-γGlu-C20 diacid])RCNTATCATQRLANFLRHSSPNFGAIPSSTNVGSHTY-NH2
modifications: disulfide 3-8; N-terminus assumed
SMILES: CC[C@H](C)[C@H](NC(=O)[C@H](C)NC(=O)CNC(=O)[C@H](Cc1ccccc1)NC(=O)[C@H](CC(N)=O)NC(=O)[C@@H]1CCCN1C(=O)[C@H](CO)NC(=O)[C@H](CO)NC(=O)[C@H](Cc1c[nH]cn1)NC(=O)[C@H](CCCNC(=N)N)NC(=O)[C@H](CC(C)C)NC(=O)[C@H](Cc1ccccc1)NC(=O)[C@H](CC(N)=O)NC(=O)[C@H](C)NC(=O)[C@H](CC(C)C)NC(=O)[C@H](CCCNC(=N)N)NC(=O)[C@H](CCC(N)=O)NC(=O)[C@@H](NC(=O)[C@H](C)NC(=O)[C@@H]1CSSC[C@H](NC(=O)[C@H](CCCNC(=N)N)NC(=O)[C@@H](N)CCCCNC(=O)COCCOCCNC(=O)CC[C@H](NC(=O)CCCCCCCCCCCCCCCCCCC(=O)O)C(=O)O)C(=O)N[C@@H](CC(N)=O)C(=O)N[C@@H]([C@@H](C)O)C(=O)N[C@@H](C)C(=O)N[C@@H]([C@@H](C)O)C(=O)N1)[C@@H](C)O)C(=O)N1CCC[C@H]1C(=O)N[C@@H](CO)C(=O)N[C@@H](CO)C(=O)N[C@H](C(=O)N[C@@H](CC(N)=O)C(=O)N[C@H](C(=O)NCC(=O)N[C@@H](CO)C(=O)N[C@@H](Cc1c[nH]cn1)C(=O)N[C@H](C(=O)N[C@@H](Cc1ccc(O)cc1)C(N)=O)[C@@H](C)O)C(C)C)[C@@H](C)O
notes: 38 residues; also called compound 45

Ratio hCT/hAmylin funct. (hCTR EC50 over hAmylin-R EC50): 16.7
hAmylin-R funct. EC50 (pM): 260 pM
B3: N^ε1-[2-[2-[2-[[(4S)-4-carboxy-4-(19-carboxynonadecanoylamino)butanoyl]amino]ethoxy]ethoxy]acetyl]-[Arg17,Pro21,Pro27]-h-amylin (peptide)
peptide: K([AEEA-γGlu-C20 diacid])CNTATCATQRLANFLRHSSPNFGAIPSSTNVGSNTY-NH2
modifications: disulfide 2-7; N-terminus assumed
SMILES: CC[C@H](C)[C@H](NC(=O)[C@H](C)NC(=O)CNC(=O)[C@H](Cc1ccccc1)NC(=O)[C@H](CC(N)=O)NC(=O)[C@@H]1CCCN1C(=O)[C@H](CO)NC(=O)[C@H](CO)NC(=O)[C@H](Cc1c[nH]cn1)NC(=O)[C@H](CCCNC(=N)N)NC(=O)[C@H](CC(C)C)NC(=O)[C@H](Cc1ccccc1)NC(=O)[C@H](CC(N)=O)NC(=O)[C@H](C)NC(=O)[C@H](CC(C)C)NC(=O)[C@H](CCCNC(=N)N)NC(=O)[C@H](CCC(N)=O)NC(=O)[C@@H](NC(=O)[C@H](C)NC(=O)[C@@H]1CSSC[C@H](NC(=O)[C@@H](N)CCCCNC(=O)COCCOCCNC(=O)CC[C@H](NC(=O)CCCCCCCCCCCCCCCCCCC(=O)O)C(=O)O)C(=O)N[C@@H](CC(N)=O)C(=O)N[C@@H]([C@@H](C)O)C(=O)N[C@@H](C)C(=O)N[C@@H]([C@@H](C)O)C(=O)N1)[C@@H](C)O)C(=O)N1CCC[C@H]1C(=O)N[C@@H](CO)C(=O)N[C@@H](CO)C(=O)N[C@H](C(=O)N[C@@H](CC(N)=O)C(=O)N[C@H](C(=O)NCC(=O)N[C@@H](CO)C(=O)N[C@@H](CC(N)=O)C(=O)N[C@H](C(=O)N[C@@H](Cc1ccc(O)cc1)C(N)=O)[C@@H](C)O)C(C)C)[C@@H](C)O
notes: also called compound 41

Ratio hCT/hAmylin funct. (hCTR EC50 over hAmylin-R EC50): 17
hAmylin-R funct. EC50 (pM): 116 pM
B4: N^ε1-[(4S)-4-carboxy-4-(19-carboxynonadecanoylamino)butanoyl]-[Arg17,Pro21,Pro27]-h-amylin (peptide)
peptide: K([γGlu-C20 diacid])CNTATCATQRLANFLRHSSPNFGAIPSSTNVGSNTY-NH2
modifications: disulfide 2-7; N-terminus assumed
SMILES: CC[C@H](C)[C@H](NC(=O)[C@H](C)NC(=O)CNC(=O)[C@H](Cc1ccccc1)NC(=O)[C@H](CC(N)=O)NC(=O)[C@@H]1CCCN1C(=O)[C@H](CO)NC(=O)[C@H](CO)NC(=O)[C@H](Cc1c[nH]cn1)NC(=O)[C@H](CCCNC(=N)N)NC(=O)[C@H](CC(C)C)NC(=O)[C@H](Cc1ccccc1)NC(=O)[C@H](CC(N)=O)NC(=O)[C@H](C)NC(=O)[C@H](CC(C)C)NC(=O)[C@H](CCCNC(=N)N)NC(=O)[C@H](CCC(N)=O)NC(=O)[C@@H](NC(=O)[C@H](C)NC(=O)[C@@H]1CSSC[C@H](NC(=O)[C@@H](N)CCCCNC(=O)CC[C@H](NC(=O)CCCCCCCCCCCCCCCCCCC(=O)O)C(=O)O)C(=O)N[C@@H](CC(N)=O)C(=O)N[C@@H]([C@@H](C)O)C(=O)N[C@@H](C)C(=O)N[C@@H]([C@@H](C)O)C(=O)N1)[C@@H](C)O)C(=O)N1CCC[C@H]1C(=O)N[C@@H](CO)C(=O)N[C@@H](CO)C(=O)N[C@H](C(=O)N[C@@H](CC(N)=O)C(=O)N[C@H](C(=O)NCC(=O)N[C@@H](CO)C(=O)N[C@@H](CC(N)=O)C(=O)N[C@H](C(=O)N[C@@H](Cc1ccc(O)cc1)C(N)=O)[C@@H](C)O)C(C)C)[C@@H](C)O
notes: also called compound 48
